Results on 1 molecule are retold here after patent USRE44359 (Hoffmann-La Roche Inc, dated 2013).

The assay concerns the target T1, Recombinant P-selectin (R&D Systems) (human, UniProt P16109 42-771).
T1 construct: extracellular domain; also called recombinant human P-selectin; recombinant truncated form of P-selectin
T1 sequence (looked up): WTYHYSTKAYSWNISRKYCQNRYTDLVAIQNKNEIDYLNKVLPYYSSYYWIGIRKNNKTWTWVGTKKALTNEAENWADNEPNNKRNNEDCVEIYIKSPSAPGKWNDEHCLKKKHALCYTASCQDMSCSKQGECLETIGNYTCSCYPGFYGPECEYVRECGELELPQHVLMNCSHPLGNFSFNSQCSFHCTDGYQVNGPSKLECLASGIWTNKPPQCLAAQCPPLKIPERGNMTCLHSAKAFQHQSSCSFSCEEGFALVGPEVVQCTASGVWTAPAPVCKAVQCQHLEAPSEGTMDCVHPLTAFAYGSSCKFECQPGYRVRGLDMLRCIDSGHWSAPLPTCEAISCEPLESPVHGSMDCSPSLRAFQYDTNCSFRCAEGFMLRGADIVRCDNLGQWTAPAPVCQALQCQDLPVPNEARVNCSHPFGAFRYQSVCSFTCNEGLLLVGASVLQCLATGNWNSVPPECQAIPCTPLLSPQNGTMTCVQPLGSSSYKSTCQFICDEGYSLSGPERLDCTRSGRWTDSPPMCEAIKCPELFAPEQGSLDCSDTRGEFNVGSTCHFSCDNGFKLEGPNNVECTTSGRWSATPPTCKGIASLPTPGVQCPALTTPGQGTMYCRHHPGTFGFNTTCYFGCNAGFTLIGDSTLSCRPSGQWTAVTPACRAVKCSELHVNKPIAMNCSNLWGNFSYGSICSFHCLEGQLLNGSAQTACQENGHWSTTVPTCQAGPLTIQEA
Put plainly: SPR, BIACORE 2000; antibody captured by anti-human Fcγ on CM5, recombinant P-selectin 0-50 nM as analyte; 1:1 Langmuir fit. A general note: Surface plasmon resonance follows binding to a sensor surface in real time, without labels.

B1: HuMab 017 (antibody, V domains shown)
VH: QPQLVQSGAEVKKPGASVKVSCKVSGNTLTELSMHWVRQAPGKGLEWMGGFDPENGEAIYAQKFQGRVTMTADTSTDTAYMDLSSLRSEDTAVYYCATDLAGGSDFYYYGLDVWGQGTTVTVSS
VL: AIQLTQSPSSLSASVGDRVTITCRASQGISSALAWYQQKPGKAPKLLIYDASSLESGVPSRFSGSGSGTDFTLTISSLQPEDFATYYCQQFNSYPYTFGQGTKLEIK
notes: Human monoclonal antibody; kappa light and gamma1 heavy chains by the cloning section; also called antibody 017; LC 1004-017
Turning to B1, the Ka turned out to be 5.59e+09 M⁻¹.
